Here are results for two molecules from PMC5538626, “Structural and functional analysis of the GABARAP interaction motif (GIM)” (EMBO Reports, 2017).

In the experiment the target is LC3B (for ITC and NMR) (human), Q9GZQ8. The experiment is described as follows: ITC; peptide 0.4 mM titrated into 0.020 mM LC3/GABARAP protein in 26 steps, 25°C; 50 mM Na2HPO4, 100 mM NaCl, pH 7.0; one-site model.

B1: PLEKHM1‐LIR W635A peptide (ITC), Q9Y4G2 629-642 (peptide)
chain: PQQEDEAVNVQYPD
modifications: not checked
B1: the Ka turned out to be 10000 M⁻¹, the Kd was greater than 100 µM and the dH was -0.8 kcal/mol.

B2: PLEKHM1‐LIR V636G peptide (ITC), Q9Y4G2 629-642 (peptide)
chain: PQQEDEWGNVQYPD
modifications: not checked
As for B2, the Ka was determined as 10000 M⁻¹, the Kd is greater than 100 µM and the dH is -1.7 kcal/mol.
